Assay results reported in the supplement of paper PMC12667976.

B1: library; numbered along this chain (parent)
chain: MATDAALRRLLRLHRTEIAVAVDSAFPLLHALADHDVVPEDKFQETLHLKEKEGCPQAFHALLSWLLTQDSTAILDFWRVLFKDYNLERYGRLQPILDSFPKDVDLSQPRKGRKPPAVPKALVPPPRLPTKRKASEEARAAAPAALTPRGTASPGSQLKAKPPKKPESSAEQQRLPLGNGIQTMSASVQRAVAMSSGDVPGARGAVEGILIQQVFESGGSKKCIQVGGEFYTPSKFEDSGSGKNKARSSSGPKPLVRAKGAQGAAPGGGEARLGQQGSVPAPLALPSDPQLHQKNEDECAVCRDGGELICCDGCPRAFHLACLSPPLREIPSGTWRCSSCLQATVQEVQPRAEEPRPQEPPVETPLPPGLRSAGEEVRGPPGEPLAGMDTTLVYKHLPAPPSAAPLPGLDSSALHPLLCVGPEGQQNLAPGARCGVCGDGTDVLRCTHCAAAFHWRCHFPAGTSRPGTGLRCRSCSGDVTPAPVEGVLAPSPARLAPGPAKDDTASHEPALHRDDLESLLSEHTFDGILQWAIQSMARPAAPFPS

Variants of: B1
Experiment: AIRE transcriptional activation functional score (insulin promoter-GFP; nonsense median 0, synonymous median 1) (normalised score); higher = higher AIRE activity (more reporter activation)
Settings: with insulin promoter-GFP reporter in HEK293
Procedure: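 Deep mutational scan of full-length human AIRE (codon-optimized cDNA, DT-POPCode NNN libraries over three regions) integrated at a Bxb1 landing pad in HEK293 cells carrying an insulin core promoter-GFP reporter at a Flp-In site. Cells were sorted for the top 10% GFP about 14 days after transfection. Variant frequency log-ratios (select vs non-select, TileSeq) were rescaled so that the nonsense median is 0 and the synonymous median is 1, then averaged over biological replicates.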

AIRE transcriptional activation functional score of substitutions, site by site:
A191: R 1.2, W 0.116, C 1.08, K 0.485, T 1.27, Y -0.337, E 0.164, D 0.948, M 0.662, H 1.25, S 1.03, Q 0.489, L 0.166, F -0.339, P 0.647, N 0.144, I -0.149, G 0.958, V 0.157
R190: H 0.858, A 0.878, Y 0.797, E 0.705, I 0.118, C 0.414, T 0.755, D 0.292, G 0.592, M 0.19, N 1.15, P 0.955, L 0.356, F -0.277, V 0.094, K 0.53, W 0.069, S 0.821, Q 1.24
V192: C 0.889, Y 1.19, T 0.917, E 0.516, D 0.613, P 0.706, Q 0.811, R 0.721, N 0.244, S 0.697, L 1.02, G 0.777, F 0.922, A 0.598, M 1.08, W 0.522, K 1.14, I 1.13, H 0.776
A193: P 0.42, C 1.39, K 0.858, V 0.147, Y 1.05, E 0.394, D 1.03, M 0.563, H 1.81, I 0.281, S 0.899, W -1.35, Q 1.88, F 0.268, G 0.791, N 1.14, T 1.15, L 0.279, R 0.93
V188: D 0.779, E 0.556, G 0.504, L 1.24, H 0.687, M 1.32, Y 1.56, R 0.52, T 0.434, S 0.447, C 0.891, K 0.779, W 0.518, N 0.669, Q 0.798, A 0.635, P 0.629, F 0.939, I 1.01
M194: D -0.299, H 0.96, T 0.367, C 0.639, S 0.554, K 0.544, P 0.602, R 0.732, W 0.214, L 0.99, I 1.08, A 0.708, E 0.601, N 0.73, Y 0.702, G 0.75, F 0.394, V 1.31, Q 0.907
Q189: V -0.071, C 0.0413, W -1.03, T 0.669, I 0.169, G 0.415, F -0.181, L 0.207, E 1.01, D 0.724, R 0.813, S 1.21, M -0.352, P 0.54, H 0.892, Y 0.0452, N 0.838, A 1.25, K 0.969
A186: Q 0.6, H 0.849, V -0.207, M 0.198, L 0.0294, I -0.146, N 0.421, S 0.95, P 0.846, R 0.648, G 0.548, Y -0.165, W 0.156, T 0.873, K 0.646
S187: Y 0.152, L 0.063, K 0.853, D 0.711, I 0.599, C 0.918, G 0.706, T 1.17, N 0.716, P 0.621, W 0.0947, Q 0.823, A 0.982, V 0.398, F -0.0306, H 1.28, M 0.503, E 0.48, R 1.18
